Source: PMC3760834

Molecular target: GST-Cx46G143R loop fusion protein (intracellular loop domain of human Cx46 with the cataract mutation G143R) (human)
Assay: pull-down; GST, GST-Cx46 loop or GST-Cx46G143R loop on glutathione beads incubated with crude membrane proteins of HeLa cells expressing Cx46, rotating platform, 4°C overnight; eluted proteins blotted with anti-Cx46 and anti-GST

fold of Cx46 pulled down against the wild-type GST-Cx46 loop: > 2 fold
Substance: human connexin 46 (Cx46), wild type (from UniProt Q9Y6H8 1-435) (natural protein)
